Data on one molecule can be found in patent US20260056186A1 (JIANGSU HENGRUI PHARMACEUTICALS, published 2026).

Experiment [1] addresses T1, recombinant human BAFF (R&D cat: 7537-BF-025/CF) (human, UniProt Q9Y275 134-285). The experiment can be described thus: cell-based or functional assay.
For experiment [2], the target named is T1, recombinant human BAFF (R&D cat: …). In words: cell-based or functional assay. The source holds these as a separate data set.
For experiment [3], the target named is T2, recombinant human APRIL (R&D cat: 5860-AP-010/CF) (human, UniProt O75888 105-250, limits assumed).
T2 sequence (looked up): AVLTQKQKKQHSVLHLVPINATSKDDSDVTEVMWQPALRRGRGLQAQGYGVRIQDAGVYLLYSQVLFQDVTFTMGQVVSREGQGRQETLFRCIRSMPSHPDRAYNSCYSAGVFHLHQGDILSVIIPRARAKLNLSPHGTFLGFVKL
In words: cell-based or functional assay.

The target in experiment [4] is T3, BAFF (PeproTech, Cat: 310-13) (UniProt Q9Y275 134-285). In words: ELISA, BAFF coated at 1 ug/mL, anti-human Fc-HRP, OD450. Background: In an ELISA, binding on a coated surface is turned into a signal by an enzyme label.
Experiment [5] has as its target T3, BAFF (PeproTech, Cat: 310-13). The experiment is described as above. The procedure:
The capabilities of fusion proteins B606401, B637302, B746201, and B805201 to bind to BAFF and APRIL were assessed by ELISA as follows:
(§1) BAFF (PeproTech, Cat: 310-13) or ARPIL (Acro Biosystems, Cat: APL-H52D1) was diluted to 1 μg/mL with PBS, and a 96-well plate was coated with the dilution overnight at 4° C. The plate was washed with PBST and blocked with Blocking Buffer (PBST containing 1% BSA) at 37° C. for 1 h. The plate was tapped. The test antibodies were diluted with Blocking Buffer. Incubation was performed at 37° C. for 1.5 h. The plate was washed with PBST. An HRP-mouse anti-human Fc antibody (GenScript, Cat: A01854-200) was diluted with Blocking Buffer. Incubation was performed at 37° C. for 40 min. The plate was washed with PBST. 100 μL of TMB substrate solution (Biopanda, Cat: TMB-S-003) was added, and color development was performed at 37° C. for 3 min. 100 μL of ELISA stop solution (Solarbio, Cat: C1058) was added. OD450 was measured.
The source holds these as a separate data set.

The target in experiment [6] is T4, APRIL (Acro Biosystems, Cat: APL-H52D1) (UniProt O75888 115-250, limits assumed).
T4 construct: also called ARPIL
T4 sequence (looked up): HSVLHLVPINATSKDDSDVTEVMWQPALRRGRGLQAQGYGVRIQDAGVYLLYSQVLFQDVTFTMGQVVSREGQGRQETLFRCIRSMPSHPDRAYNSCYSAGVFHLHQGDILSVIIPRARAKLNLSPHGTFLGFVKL
In words: ELISA, APRIL coated at 1 ug/mL, anti-human Fc-HRP, OD450.

Experiment [7] concerns the target T3, BAFF (PeproTech, Cat: 310-13). In words: ELISA, plate coated with BAFF 1 ug/mL, HRP anti-human Fc, OD450. The protocol: as §1, with “310-13)” for “310-13) or ARPIL (Acro Biosystems, Cat: APL-H52D1)”
For experiment [8] the target is unchanged. The experiment is described as above. The protocol:
as §1, with “310-13)” for “310-13) or ARPIL (Acro Biosystems, Cat: APL-H52D1)”
This is another data set of the same source.

Read-outs that look alike come from different tables or passages of the source.

T1 sequence (Q9Y275 134-285 limits assumed): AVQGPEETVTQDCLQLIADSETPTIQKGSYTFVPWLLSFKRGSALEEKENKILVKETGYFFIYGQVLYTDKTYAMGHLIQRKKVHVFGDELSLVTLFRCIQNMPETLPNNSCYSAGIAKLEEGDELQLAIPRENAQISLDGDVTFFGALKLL
T3 sequence (Q9Y275 134-285 limits assumed): as above

B1: Telitacicept (RCT-18) (Fc fusion)
chain: SRVDQEERFPQGLWTGVAMRSCPEEQYWDPLLGTCMSCKTICNHQSQRTCAAFCRSLSCRKEQGKFYDHLLRDCISCASICGQHPKQCAYFCENKLRSPVNLPPELDKTHTCPPCPAPEAEGAPSVFLFPPKPKDTLMISRTPEVTCVVVDVSHEDPEVKFNWYVDGVEVHNAKTKPREEQYNSTYRVVSVLTVLHQDWLNGKEYKCKVSNKALPSSIEKTISKAKGQPREPQVYTLPPSRDELTKNQVSLTCLVKGFYPSDIAVEWESNGQPENNYKTTPPVLDSDGSFFLYSKLTVDKSRWQQGNVFSCSVMHEALHNHYTQKSLSLSPGK
notes: Positive control TACI-Fc; also called RC18
In general, EC50 refers to the concentration that produces a half-maximal response. A high value points to lower potency in that assay. The term EC50 (read off the curve) denotes the midpoint of the concentration-response curve. A lower EC50 (read off the curve) goes with a more potent agent. On to B1, for which, in experiment [1], the “Flow cytometry proliferating B cell proportion (%), mean value, BAFF-induced, drug at 10 nM (IgG1: 40.15)” value came out at 36%; the “Flow cytometry proliferating B cell proportion (%), mean value, BAFF-induced, drug at 100 nM (IgG1: 40.60)” value came to 30.7%; the “Flow cytometry proliferating B cell proportion (%), mean value, BAFF-induced, drug at 1000 nM (IgG1: 33.97)” value stood at 24.3%. For the same molecule, in experiment [2], the “CD27+ CD38+ plasma cell count, mean value, BAFF + APRIL-induced (both ligands together), drug at 100 nM (IgG1: 2496)” value was 510 cells and the “CD27+ CD38+ plasma cell count, mean value, BAFF + APRIL-induced (both ligands together), drug at 1000 nM (IgG1: 2279)” value stood at 230 cells. Further, in experiment [3], the “CD27+ CD38+ plasma cell count, mean value, BAFF + APRIL-induced (both ligands together), drug at 10 nM (IgG1: 2687)” value was 2450 cells; the “CD27+ CD38+ plasma cell count, mean value, BAFF + APRIL-induced (both ligands together), drug at 100 nM (IgG1: 2496)” value was 510 cells; the “CD27+ CD38+ plasma cell count, mean value, BAFF + APRIL-induced (both ligands together), drug at 1000 nM (IgG1: 2279)” value is 230 cells. Also, in experiment [4], it took 0.713 nM to reach a half-maximal effect (EC50) and the Emax is 2.28 nM (as printed). The response in experiment [5] was half-maximal at 0.256 nM (EC50). In experiment [6], this molecule showed a concentration for a half-maximal effect (EC50) of 0.711 nM and an Emax of 2.62. The “EC50 (read off the curve)” value in experiment [7] was around 0.4 nM. For the same molecule, the “EC50 (read off the curve)” value in experiment [8] is around 0.2 nM.
